The source of these data is paper PMC11834087, “Use of polyadenosine tail mimetics to enhance mRNA expression from genes associated with haploinsufficiency disorders”.

Data set [1] concerns the target T1, PABPC (PABPC1 RRM1-4) (Homo sapiens, UniProt P11940 1-370). Nature of the data set: EMSA; RNA 5 nM; 1x binding buffer: 100 mM NaCl, 5 mM MgCl2, 0.5 mM EDTA, 0.01% NP-40, 0.1 mg/mL BSA (from 10x stock), 5% glycerol from RNA mix plus glycerol/PBS from protein stock; pH not stated; 15 min at room temperature; 6% native gel with 0.01% Triton X-100 at 4 C. The conditions noted are these: protein: commercial; tags: N-terminal 6xHis-SUMO; label: 3' Cy5.

Data set [2] has as its target T1, PABPC (PABPC1 RRM1-4). In words: EMSA; RNA 10 nM; 1x binding buffer: 100 mM NaCl, 5 mM MgCl2, 0.5 mM EDTA, 0.01% NP-40, 0.1 mg/mL BSA (from 10x stock), 5% glycerol from RNA mix plus glycerol/PBS from protein stock; pH not stated; 15 min at room temperature; 6% native gel with 0.01% Triton X-100 at 4 C. The settings on record: protein: commercial; tags: N-terminal 6xHis-SUMO; label: 3' Cy5.

T1 sequence (P11940 1-370): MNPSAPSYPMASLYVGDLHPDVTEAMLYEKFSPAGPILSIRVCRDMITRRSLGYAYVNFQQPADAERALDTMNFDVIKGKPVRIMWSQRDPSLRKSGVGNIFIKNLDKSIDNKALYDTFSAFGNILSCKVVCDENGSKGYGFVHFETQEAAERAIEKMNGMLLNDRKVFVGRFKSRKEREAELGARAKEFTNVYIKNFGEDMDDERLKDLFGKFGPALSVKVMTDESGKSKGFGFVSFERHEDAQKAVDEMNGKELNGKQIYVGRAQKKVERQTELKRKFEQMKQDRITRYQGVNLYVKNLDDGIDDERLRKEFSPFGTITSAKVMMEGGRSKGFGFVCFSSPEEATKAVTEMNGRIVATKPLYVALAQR

As for AAAAAAAAAAAAAAA (XNA, 2'-O-methyl and phosphorothioate on all 15 nucleotides) [fully modified poly(A)15], in data set [1], the equilibrium dissociation constant (Kd) amounted to 85 nM.

In the case of AAAAAAAAAAAAAAA (XNA, 2'-O-methyl and phosphorothioate on the first three nucleotides (mA*mA*mA*A12)) [3NT Mod poly(A)15], in data set [1], the dissociation constant (Kd) was found to be 54 nM.

For the molecule AAAAAAAAAAAAAAA (ssRNA) [unmodified poly(A)15], the Kd in data set [2] came to 110 nM.
